# From IntAct's records for PubMed 31515488
# B1: Zyxin (Homo sapiens), Q15942 (parent)
# chain: MAAPRPSPAISVSVSAPAFYAPQKKFGPVVAPKPKVNPFRPGDSEPPPAPGAQRAQMGRVGEIPPPPPEDFPLPPPPLAGDGDDAEGALGGAFPPPPPPIEESFPPAPLEEEIFPSPPPPPEEEGGPEAPIPPPPQPREKVSSIDLEIDSLSSLLDDMTKNDPFKARVSSGYVPPPVATPFSSKSSTKPAAGGTAPLPPWKSPSSSQPLPQVPAPAQSQTQFHVQPQPQPKPQVQLHVQSQTQPVSLANTQPRGPPASSPAPAPKFSPVTPKFTPVASKFSPGAPGGSGSQPNQKLGHPEALSAGTGSPQPPSFTYAQQREKPRVQEKQHPVPPPAQNQNQVRSPGAPGPLTLKEVEELEQLTQQLMQDMEHPQRQNVAVNELCGRCHQPLARAQPAVRALGQLFHIACFTCHQCAQQLQGQQFYSLEGAPYCEGCYTDTLEKCNTCGEPITDRMLRATGKAYHPHCFTCVVCARPLEGTSFIVDQANRPHCVPDYHKQYAPRCSVCSEPIMPEPGRDETVRVVALDKNFHMKCYKCEDCGKPLSIEADDNGCFPLDGHVLCRKCHTARAQT
# partner: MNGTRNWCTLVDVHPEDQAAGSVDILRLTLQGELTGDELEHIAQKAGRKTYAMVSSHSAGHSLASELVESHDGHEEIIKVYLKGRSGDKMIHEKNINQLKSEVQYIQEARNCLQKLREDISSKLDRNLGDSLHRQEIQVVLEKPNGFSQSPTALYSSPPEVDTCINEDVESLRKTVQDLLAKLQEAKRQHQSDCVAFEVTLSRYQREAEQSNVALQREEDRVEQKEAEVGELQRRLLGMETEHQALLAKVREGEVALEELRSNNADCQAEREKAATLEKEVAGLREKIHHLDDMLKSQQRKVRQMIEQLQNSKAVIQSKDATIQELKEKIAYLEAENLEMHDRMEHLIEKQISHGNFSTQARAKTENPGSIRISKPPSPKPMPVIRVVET
# B2: Paraneoplastic antigen-like protein 5 (Homo sapiens), Q96PV4 (parent)
# chain: MALTLLEDWCKGMDMDPRKALLIVGIPMECSEVEIQDTVKAGLQPLCAYRVLGRMFRREDNAKAVFIELADTVNYTTLPSHIPGKGGSWEVVVKPRNPDDEFLSRLNYFLKDEGRSMTDVARALGCCSLPAESLDAEVMPQVRSPPLEPPKESMWYRKLKVFSGTASPSPGEETFEDWLEQVTEIMPIWQVSEVEKRRRLLESLRGPALSIMRVLQANNDSITVEQCLDALKQIFGDKEDFRASQFRFLQTSPKIGEKVSTFLLRLEPLLQKAVHKSPLSVRSTDMIRLKHLLARVAMTPALRGKLELLDQRGCPPNFLELMKLIRDEEEWENTEAVMKNKEKPSGRGRGASGRQARAEASVSAPQATVQARSFSDSSPQTIQGGLPPLVKRRRLLGSESTRGEDHGQATYPKAENQTPGREGPQAAGEELGNEAGAGAMSHPKPWET
# B3: Tuftelin-interacting protein 11 (Homo sapiens), Q9UBB9 (parent)
# chain: MSLSHLYRDGEGRIDDDDDERENFEITDWDLQNEFNPNRQRHWQTKEEATYGVWAERDSDDERPSFGGKRARDYSAPVNFISAGLKKGAAEEAELEDSDDEEKPVKQDDFPKDFGPRKLKTGGNFKPSQKGFAGGTKSFMDFGSWERHTKGIGQKLLQKMGYVPGRGLGKNAQGIINPIEAKQRKGKGAVGAYGSERTTQSMQDFPVVDSEEEAEEEFQKELSQWRKDPSGSKKKPKYSYKTVEELKAKGRISKKLTAPQKELSQVKVIDMTGREQKVYYSYSQISHKHNVPDDGLPLQSQQLPQSGKEAKAPGFALPELEHNLQLLIDLTEQEIIQNDRQLQYERDMVVNLFHELEKMTEVLDHEERVISNLSKVLEMVEECERRMQPDCSNPLTLDECARIFETLQDKYYEEYRMSDRVDLAVAIVYPLMKEYFKEWDPLKDCTYGTEIISKWKSLLENDQLLSHGGQDLSADAFHRLIWEVWMPFVRNIVTQWQPRNCDPMVDFLDSWVHIIPVWILDNILDQLIFPKLQKEVENWNPLTDTVPIHSWIHPWLPLMQARLEPLYSPIRSKLSSALQKWHPSDSSAKLILQPWKDVFTPGSWEAFMVKNIVPKLGMCLGELVINPHQQHMDAFYWVIDWEGMISVSSLVGLLEKHFFPKWLQVLCSWLSNSPNYEEITKWYLGWKSMFSDQVLAHPSVKDKFNEALDIMNRAVSSNVGAYMQPGARENIAYLTHTERRKDFQYEAMQERREAENMAQRGIGVAASSVPMNFKDLIETKAEEHNIVFMPVIGKRHEGKQLYTFGRIVIYIDRGVVFVQGEKTWVPTSLQSLIDMAK
# partner: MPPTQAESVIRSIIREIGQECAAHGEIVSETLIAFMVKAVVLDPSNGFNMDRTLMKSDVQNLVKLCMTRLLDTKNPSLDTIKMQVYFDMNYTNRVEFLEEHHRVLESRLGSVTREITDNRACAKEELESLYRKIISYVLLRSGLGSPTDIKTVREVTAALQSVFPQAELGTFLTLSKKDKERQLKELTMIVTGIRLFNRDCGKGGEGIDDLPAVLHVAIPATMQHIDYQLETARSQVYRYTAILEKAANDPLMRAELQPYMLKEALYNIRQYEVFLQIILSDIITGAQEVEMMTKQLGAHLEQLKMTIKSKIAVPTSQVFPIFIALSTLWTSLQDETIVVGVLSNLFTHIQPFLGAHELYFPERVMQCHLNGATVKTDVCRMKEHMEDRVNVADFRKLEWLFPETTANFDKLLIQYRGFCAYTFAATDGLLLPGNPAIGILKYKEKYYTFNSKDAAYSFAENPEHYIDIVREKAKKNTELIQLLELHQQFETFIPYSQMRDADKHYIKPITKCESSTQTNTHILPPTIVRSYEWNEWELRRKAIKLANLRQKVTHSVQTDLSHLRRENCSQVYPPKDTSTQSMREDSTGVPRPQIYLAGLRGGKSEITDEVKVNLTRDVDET
# B4: Fibronectin type III and SPRY domain-containing protein 2 (Homo sapiens), A1L4K1 (parent)
# chain: MEEESGEELGLDRSTPKDFHFYHMDLYDSEDRLHLFPEENTRMRKVVQAEMANESRGAGDGKAQRDLQEEVDELVHLYGLEDDHELGDEFVDENIPRTGVSEYPPYMMKRRDPAREQRDWRLSGEAAEAEDLGFGGWGSAGQCQDLREAYRYTHGRASEEYECYVIPEEEDEEEAADVFCVTCKTPIRAFQKVFDEHKEHEVIPLNEALESAKDEIHKNMYKLEKQIIEMENFANHLEEVFITVEENFGKQEQNFESHYNEILETLAQKYEEKIQALGEKKKEKLEALYGQLVSCGENLDTCKELMETIEEMCHEEKVDFIKDAVAMADRLGKFLKTKTDVEISAQPEFEDQTLDFSDVEQLMGSINTIPAPSAPVINPQVPNSATGSSVRVCWSLYSDDTVESYQLSYRPVQDSSPGTDQAEFTVTVKETYCSVTNLVPNTQYEFWVTAHNRAGPSPSSERAVYMTAPSPPIIKTKEIRSCEEAVLICWESGNLNPVDSYTVELTQAESPEASGVTESVVGIPTCESVVQLQPGRSYIIYVRALNMGGPSVRSEPATVHTIGSYFRLNKDTCHPWLTISEDGLTAVRSERRTPARELSPSDTHFTRCVAVMGNLIPVRGHHYWEVEVDEHLDYRVGVAFADVRKQEDLGANCLSWCMRHTFASSRHKYEFLHNRTTPDIRITVPPKKIGILLDYEHSKLSFFNVDLSQHLYTFSCQLHEFVHPCFSLEKPGCLKVHNGISMPKHVTFY
# partner: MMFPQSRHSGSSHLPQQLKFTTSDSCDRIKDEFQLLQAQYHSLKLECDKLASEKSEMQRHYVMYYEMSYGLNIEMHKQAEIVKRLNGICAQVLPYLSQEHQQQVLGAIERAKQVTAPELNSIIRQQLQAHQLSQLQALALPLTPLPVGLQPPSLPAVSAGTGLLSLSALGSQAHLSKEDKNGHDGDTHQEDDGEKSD
# B5: Elongin-A2 (Homo sapiens), Q8IYF1 (parent)
# chain: MAAGSTTLHAVEKLQVRLATKTEPKKLEKYLQKLSALPMTADILAETGIRKTVKRLRKHQHVGDFARDLAARWKKLVLVDRNTRPGPQDPEESASRQRFGEALQDQEKAWGFPENATAPRSPSHSPEHRRTARRTPPGQQRPHPRSHSREPRAERKCPRIAPADSGRYRASPTRTAPLRMPEGPEPAAPGKQPGRGHTHAAQGGPLLCPGCQGQPQGKAVVSHSKGHKSSRQEKRPLCAQGDWHSPTLIREKSCGACLREETPRMPSWASARDRQPSDFKTDKEGGQAGSGQRVPALEEAPDSHQKRPQHSHSNKKRPSLDGRDPGNGTHGLSPEEKEQLSNDRETQEGKPPTAHLDRTSVSSLSEVEEVDMAEEFEQPTLSCEKYLTYDQLRKQKKKTGKSATTALGDKQRKANESKGTRESWDSAKKLPPVQESQSERLQAAGADSAGPKTVPSHVFSELWDLSEAWMQANYDPLSDSDSMTSQAKPEALSSPKFREEAAFPGRRVNAKMPVYSGSRPACQLQVPTLRQQCAQVLRNNPDALSDVGEVPYWVLEPVLEGWRPDQLYRRKKDNHALVRETDELRRNHCFQDFKEEKPQENKTWREQYLRLPDAPEQRLRVMTTNIRSARGNNPNGREAKMICFKSVAKTPYDTSRRQEKSAGDADPENGEIKPASKPAGSSHTPSSQSSSGGGRDSSSSILRWLPEKRANPCLSSSNEHAAPAAKTRKQAAKKVAPLMAKAIRDYKRRFSRR
# Variants of: B1
# Conditions: with tuft1_human TUFT1, Q9NNX1
row,Variant,effect of a mutation on the interaction
1,R563Q,with no effect
2,H223L,with no effect

# Variants of: B2
# Conditions: with arpc4_human ARPC4, P59998
row,Variant,effect of a mutation on the interaction
1,R312Q,with no effect
2,T261A,with no effect
3,L21Q,disrupting interaction strength
4,V274M,with no effect

# Variants of: B2
# Conditions: with zfy26_human ZFYVE26, Q68DK2
# zfy26_human ZFYVE26, Q68DK2, sequence (Q68DK2 whole entry): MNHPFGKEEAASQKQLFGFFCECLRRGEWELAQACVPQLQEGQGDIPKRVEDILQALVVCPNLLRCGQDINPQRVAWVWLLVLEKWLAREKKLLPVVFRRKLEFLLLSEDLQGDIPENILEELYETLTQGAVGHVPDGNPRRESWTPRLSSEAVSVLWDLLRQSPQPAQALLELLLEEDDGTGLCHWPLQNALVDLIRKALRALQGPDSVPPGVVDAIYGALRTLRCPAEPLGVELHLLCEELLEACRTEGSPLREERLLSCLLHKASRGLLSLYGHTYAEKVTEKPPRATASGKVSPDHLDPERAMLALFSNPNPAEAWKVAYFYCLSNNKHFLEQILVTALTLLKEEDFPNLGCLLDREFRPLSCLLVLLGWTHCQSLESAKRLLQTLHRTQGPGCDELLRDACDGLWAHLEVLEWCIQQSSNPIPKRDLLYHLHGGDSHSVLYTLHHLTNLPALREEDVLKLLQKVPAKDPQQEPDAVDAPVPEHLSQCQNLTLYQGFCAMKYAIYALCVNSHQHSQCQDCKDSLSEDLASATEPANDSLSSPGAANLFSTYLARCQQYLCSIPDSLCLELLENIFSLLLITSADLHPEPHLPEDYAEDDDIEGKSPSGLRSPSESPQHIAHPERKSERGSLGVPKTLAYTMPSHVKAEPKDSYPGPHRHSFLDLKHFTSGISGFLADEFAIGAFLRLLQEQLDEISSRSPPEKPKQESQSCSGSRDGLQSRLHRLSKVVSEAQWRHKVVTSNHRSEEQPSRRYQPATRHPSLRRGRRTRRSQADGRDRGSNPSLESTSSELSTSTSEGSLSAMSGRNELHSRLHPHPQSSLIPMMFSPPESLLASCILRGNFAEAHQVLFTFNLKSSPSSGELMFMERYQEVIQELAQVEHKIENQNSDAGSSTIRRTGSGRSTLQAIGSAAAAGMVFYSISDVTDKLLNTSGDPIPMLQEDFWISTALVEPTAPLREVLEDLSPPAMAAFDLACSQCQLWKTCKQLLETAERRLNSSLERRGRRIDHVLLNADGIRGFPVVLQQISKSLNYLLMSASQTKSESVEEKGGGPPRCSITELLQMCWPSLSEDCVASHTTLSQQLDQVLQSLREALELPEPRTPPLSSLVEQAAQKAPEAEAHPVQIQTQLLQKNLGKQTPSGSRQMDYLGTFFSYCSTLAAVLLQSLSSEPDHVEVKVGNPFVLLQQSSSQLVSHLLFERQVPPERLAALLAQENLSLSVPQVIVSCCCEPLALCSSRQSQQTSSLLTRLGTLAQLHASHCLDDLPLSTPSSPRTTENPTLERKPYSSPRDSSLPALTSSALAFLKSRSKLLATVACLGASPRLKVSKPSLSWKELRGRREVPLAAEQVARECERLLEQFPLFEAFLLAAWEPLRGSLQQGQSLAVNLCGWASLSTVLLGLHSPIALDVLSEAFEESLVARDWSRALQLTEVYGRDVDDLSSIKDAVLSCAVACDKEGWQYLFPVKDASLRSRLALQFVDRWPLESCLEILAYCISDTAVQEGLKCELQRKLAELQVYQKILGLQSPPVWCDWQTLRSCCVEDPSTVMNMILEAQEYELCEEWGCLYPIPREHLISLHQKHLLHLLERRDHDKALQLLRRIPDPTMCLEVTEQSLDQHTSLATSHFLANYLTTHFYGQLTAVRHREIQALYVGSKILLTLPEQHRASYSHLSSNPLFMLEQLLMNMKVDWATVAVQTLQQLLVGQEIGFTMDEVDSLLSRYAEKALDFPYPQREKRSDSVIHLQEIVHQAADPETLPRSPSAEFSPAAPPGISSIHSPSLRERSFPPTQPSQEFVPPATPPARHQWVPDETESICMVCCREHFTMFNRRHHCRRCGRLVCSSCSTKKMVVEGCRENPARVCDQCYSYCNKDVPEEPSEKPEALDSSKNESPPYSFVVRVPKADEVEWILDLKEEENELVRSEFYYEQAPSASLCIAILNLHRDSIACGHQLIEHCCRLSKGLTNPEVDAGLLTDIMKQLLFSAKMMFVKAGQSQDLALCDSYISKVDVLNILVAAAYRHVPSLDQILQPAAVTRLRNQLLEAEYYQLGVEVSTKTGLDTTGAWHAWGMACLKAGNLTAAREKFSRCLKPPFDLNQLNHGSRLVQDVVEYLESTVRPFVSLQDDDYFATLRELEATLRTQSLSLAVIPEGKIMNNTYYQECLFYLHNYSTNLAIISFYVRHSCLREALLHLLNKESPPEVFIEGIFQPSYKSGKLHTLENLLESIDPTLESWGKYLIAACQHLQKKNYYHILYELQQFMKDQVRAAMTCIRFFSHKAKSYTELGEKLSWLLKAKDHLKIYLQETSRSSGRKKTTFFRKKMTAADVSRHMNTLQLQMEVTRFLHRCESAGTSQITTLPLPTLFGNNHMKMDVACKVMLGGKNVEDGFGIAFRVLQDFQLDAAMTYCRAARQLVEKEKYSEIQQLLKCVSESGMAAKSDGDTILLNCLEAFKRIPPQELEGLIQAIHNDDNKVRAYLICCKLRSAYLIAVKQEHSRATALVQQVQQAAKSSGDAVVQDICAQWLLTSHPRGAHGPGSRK
row,Variant,effect of a mutation on the interaction
1,R312Q,with no effect
2,T261A,with no effect
3,L21Q,disrupting interaction strength
4,V274M,with no effect

# Variants of: B2
# Conditions: with ccnc_human CCNC
row,Variant,effect of a mutation on the interaction
1,R312Q,with no effect
2,T261A,with no effect
3,L21Q,disrupting interaction strength
4,V274M,with no effect

# Variants of: B2
# Conditions: with aapk1_human PRKAA1, Q13131
# aapk1_human PRKAA1, Q13131, sequence (Q13131 whole entry, looked up): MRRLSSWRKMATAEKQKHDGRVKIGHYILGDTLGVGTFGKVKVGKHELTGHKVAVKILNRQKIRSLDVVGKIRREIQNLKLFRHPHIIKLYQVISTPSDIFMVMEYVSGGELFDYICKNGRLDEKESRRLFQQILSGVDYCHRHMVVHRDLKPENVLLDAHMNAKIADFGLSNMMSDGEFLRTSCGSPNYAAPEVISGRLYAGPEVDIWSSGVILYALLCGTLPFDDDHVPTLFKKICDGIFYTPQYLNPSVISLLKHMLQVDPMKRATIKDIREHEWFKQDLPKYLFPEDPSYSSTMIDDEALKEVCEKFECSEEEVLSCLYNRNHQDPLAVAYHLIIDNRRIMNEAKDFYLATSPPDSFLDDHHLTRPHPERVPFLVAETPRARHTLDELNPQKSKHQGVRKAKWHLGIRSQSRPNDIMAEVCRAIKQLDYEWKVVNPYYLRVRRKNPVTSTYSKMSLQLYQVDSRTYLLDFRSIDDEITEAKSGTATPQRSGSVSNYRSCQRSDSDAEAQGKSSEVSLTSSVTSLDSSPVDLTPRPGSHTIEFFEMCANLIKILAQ
row,Variant,effect of a mutation on the interaction
1,R312Q,with no effect
2,T261A,with no effect
3,L21Q,disrupting interaction strength
4,V274M,with no effect

# Variants of: B3
# Conditions: with cf206_human CFAP206, Q8IYR0
row,Variant,effect of a mutation on the interaction
1,S688L,with no effect
2,R8Q,with no effect

# Variants of: B4
# Conditions: with tle5_human TLE5, Q08117
row,Variant,effect of a mutation on the interaction
1,K333T,with no effect
2,E720K,with no effect

# Variants of: B5
# Conditions: with traf2_human TRAF2, Q12933
# traf2_human TRAF2, Q12933, sequence (Q12933 whole entry): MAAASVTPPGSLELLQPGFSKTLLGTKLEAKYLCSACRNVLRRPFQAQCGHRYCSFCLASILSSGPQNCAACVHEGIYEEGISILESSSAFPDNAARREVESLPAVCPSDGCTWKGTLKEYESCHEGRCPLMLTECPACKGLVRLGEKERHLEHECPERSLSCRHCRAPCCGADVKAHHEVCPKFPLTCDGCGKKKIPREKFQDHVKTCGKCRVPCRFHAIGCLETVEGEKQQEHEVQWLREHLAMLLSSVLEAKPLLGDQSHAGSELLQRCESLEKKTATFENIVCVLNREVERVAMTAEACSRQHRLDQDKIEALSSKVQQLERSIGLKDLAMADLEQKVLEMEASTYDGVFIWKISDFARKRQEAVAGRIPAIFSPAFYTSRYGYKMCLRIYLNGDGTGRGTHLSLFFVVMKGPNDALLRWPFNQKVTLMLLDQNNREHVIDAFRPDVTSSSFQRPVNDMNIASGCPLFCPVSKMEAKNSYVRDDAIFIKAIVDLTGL
row,Variant,effect of a mutation on the interaction
1,D302H,with no effect
